Data reported in the supplement of paper PMC12042874.
± gives the uncertainty stated by the source.

assay: amyloid nucleation score (Sup35N fusion, yeast selection) (log enrichment); library NNK2; higher = more nucleation; inactive = no reads after selection
Outline: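 Sup35N fusions to peptides of 20 random codons were expressed in psi-negative yeast, induced 24 hours with 100 μM copper sulfate, and grown 7 days at 30°C on medium lacking adenine and uracil. Input and output plasmid inserts were sequenced by Illumina. The nucleation score is the DiMSum log enrichment of output over input reads, centred on the mode score of non-aggregating sequences. Sequences with under 100 input reads were excluded.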

| Substance | amyloid nucleation score |
| --- | --- |
| VFTTQEGTTTIPRNSMIEYA | -0.193 ± 0.37 |
| NNSWQINIYNGVTRLIRVRA | 4.7 ± 0.039 |
| NTNAHVRMVDLVSGCASQWL | 1.75 ± 0.3 |
| SIFRLDDEGDPVMREPLM | 1.22 ± 0.59 |
| NVKICFCSVMSSTCRYNRT | 7.878 ± 0.064 |
| ELLGVQFRSRKYAATQNQWP | 2.03 ± 0.19 |
| MYLLFGSLTVYRIHYSVSNT | -1.14 ± 1.1 |
| FVHIIESELYSEQTRESHLL | -0.586 ± 0.29 |
| EVLRYGAVWMISRLVGLSLP | 0.754 ± 0.31 |
| IACIEHWALGWLLCVSGVRV | 0.534 ± 0.5 |
| NILMY | -0.46 ± 1 |
| YKFSPIHNSRCLNSLHWPKA | 0.439 ± 0.74 |
| GPKPGDVSYVYKSCRTHNSP | 0.53 ± 0.29 |
| SLFFFR | 5.03 ± 0.06 |
| NAFSKSIFKNMTQQKDQLSE | inactive |
| KARRPRIWDMDLLQLWANLP | 1.12 ± 0.66 |
| LRSRVSSSLSYKLLFRTNVL | -0.175 ± 0.49 |
| RTSSTR | 0.468 ± 0.28 |
| LMVKSDTCLLSLLSPTPFRR | 3.67 ± 0.1 |
| TSGDCYMNGILNNGWGQ | -1.42 ± 0.78 |
| SYIWSECRTNMIVWASNTLK | 3.81 ± 0.063 |
| VGGWSLYSSPVLLRIWFKRH | 0.087 ± 0.79 |
| FLLPSYERDSSYVAYF | -0.687 ± 0.79 |
| SFHYLYWIIRLVGRVYLDEG | -0.195 ± 0.36 |
| RLCVILCQVMTWRMAVSILE | 0.228 ± 0.56 |

| Substance | amyloid nucleation score |
| --- | --- |
| IAVSMNEMGY | inactive |
| WCPLWITCMCLCSGLST | 8.742 ± 0.036 |
| ASGEDVNPSVCFHTTAMLYQ | 0.98 ± 0.66 |
| NKLPDSFRSALSFY | inactive |
| HYMSAHGRRRLKPQVFYT | inactive |
| KSHAPFVLMCRIGVGSKCGK | 3.81 ± 0.09 |
| CRYYSNPAPSPRLVN | inactive |
| LIRGVII | 0.21 ± 0.54 |
| LTVLCPANLSYRIVYVLLYK | -0.865 ± 0.41 |
| FVWMCQLS | 6.297 ± 0.048 |
| MWRGQCV | 1.06 ± 0.24 |
| EAHILRLYMLSRLSGIVHMV | 0.434 ± 0.56 |
| GSFSEYVLWT | 0.863 ± 0.41 |
| VYSPAIFTNVFSYVSCEEER | 6.56 ± 0.072 |
| TIVYWSTTRTTAPGDDRESV | 5.31 ± 0.062 |
| ILLYRNAYWYPGKSSICLTS | -1.06 ± 0.49 |
| YAFIILISCFLTDDSTIGVY | -0.24 ± 0.55 |
| LVVCEMY | 0.348 ± 0.25 |
| TPPWQGSDWCGNHCNWQGPM | 0.247 ± 0.8 |
| ACCSCIIVFINFTSLFFYRF | -0.178 ± 1.1 |
| MFLSNDIAFVKNVLNRIRYL | -0.642 ± 0.78 |
| KCFKVRTDLWRSC | 1.38 ± 0.53 |
| NKTTFSICDAYDGYREWTDN | -1.17 ± 0.45 |
| ALPKFSNNYLYEFLWFSRYL | -0.538 ± 0.76 |
| LWAPAYCLIKC | 0.851 ± 0.57 |

| Substance | amyloid nucleation score |
| --- | --- |
| SHAIHRCVGWFGVWTGTLFI | 3.69 ± 0.083 |
| GTAPSDQRTSSCR | 0.989 ± 0.23 |
| WFMNSNVLHYM | 0.27 ± 0.64 |
| RHVCYGGQYLVANHSGM | -0.267 ± 0.65 |
| GLIGCAMSVVPHEELCVRTC | 1.07 ± 0.29 |
| VGMTTSWMVDPHGGRPGYHS | 2.01 ± 0.16 |
| LRYVEGHGKDITSGGSLEEH | 1.41 ± 0.14 |
| VAMVLLC | 1.03 ± 0.21 |
| INSSRSFVYDFNTWNFQDVR | -0.089 ± 0.79 |
| WRCGVVFRDEYCYRGNRTFK | -0.675 ± 0.26 |
| LQSRWCRVKETWQS | 1.66 ± 0.32 |
| YRILVNFAVVSMVRINRSFW | -1.48 ± 0.78 |
| NRWAYGVFWHSWFIKSHFG | 0.14 ± 1 |
| DFFYTYGGIYGYWSFRHGIV | -1.24 ± 0.62 |
| IIACLTVNYCTGRCATLMFP | 6.365 ± 0.036 |
| AGRLYNISNY | inactive |
| SEWDLRVLTWYMWLFVPLVQ | -0.477 ± 0.39 |
| WCGFHGKATNHFMWIV | 1.45 ± 0.27 |
| FNVEVRV | -0.379 ± 0.45 |
| LFSHL | -1.4 ± 0.54 |
| GMLRGSK | -0.359 ± 0.39 |
| LYRQTLLSHL | -0.231 ± 0.24 |
| WLGYFK | inactive |
| VQRQIDNSKLWYNYTICIPA | 0.679 ± 0.62 |
| NGLSRLEVTNH | 0.052 ± 0.49 |

| Substance | amyloid nucleation score |
| --- | --- |
| FTGCVYSVFSNQQ | 4.76 ± 0.11 |
| VTEHRNHIKTWTTQSSLCDW | 0.124 ± 0.37 |
| SSVIHYRT | 0.038 ± 0.8 |
| VEWCRMVGWSFECEASEKHW | 4.33 ± 0.055 |
| ECSRSINYLRLVLNLE | 0.708 ± 0.34 |
| RDDVRRVRPLGSVVQDDSDG | 0.882 ± 0.18 |
| LFDGASMSRRIVMWDMGWWG | 4.54 ± 0.046 |
| KASLDN | 0.018 ± 0.51 |
| GYRNPLLLILLDRVKFSCSR | -1.19 ± 1 |
| FPTIDRQVFDVRR | -1.17 ± 0.41 |
| WSRQHDSLMVLWGCRGYY | 0.148 ± 0.5 |
| RFTLIFCGSRESNGG | 6.43 ± 0.065 |
| QIFRLDFDARDSWAKMLESL | 0.536 ± 0.12 |
| YKSYSNPVLHHYSSLIPGPN | -0.001 ± 0.41 |
| GKINDSGTSYSEKRSGPCRL | -0.874 ± 0.25 |
| LFALLK | -0.005 ± 0.54 |
| EFSFHSWQLVTSCQEECCLD | inactive |
| ILDFKWNYYG | 3.05 ± 0.11 |
| TSFCTSVIGIVIHQDFAVDG | 5.574 ± 0.045 |
| NSSEINHSKG | -0.788 ± 1.1 |
| HYSRD | -0.593 ± 1.1 |
| PVLCVYFSIYN | 8.151 ± 0.054 |
| VADMVVRT | 0.806 ± 0.32 |
| IYGAMCLCP | -0.005 ± 0.63 |
| KLANYHLARDSFMVRKHRKG | 0.602 ± 0.57 |

| Substance | amyloid nucleation score |
| --- | --- |
| DSLFIACVSLF | -0.26 ± 0.63 |
| SPRRFLMKQGIHQVTLAHCH | -0.342 ± 0.76 |
| TTDRTDCLSFQLNFTDMKRG | 6.08 ± 0.073 |
| GIGYRNVISSIMGFRFTGIR | 0.109 ± 0.53 |
| NDKVFYGRFSFHHVGHWCRV | -0.506 ± 0.41 |
| CLCCKLVYASNIEIGDYMGF | 6.216 ± 0.034 |
| NLGRAQTSQ | 0.192 ± 0.65 |
| TVMRGVLCMTILYLMWHKGY | 4.75 ± 0.08 |
| PSGFRSLLFEVHHFSRWAYD | 0.691 ± 0.15 |
| KATDSRYRFFMILMFYMTIY | inactive |
| CTMWVDVCLSCDHMRYDNGG | 5.96 ± 0.093 |
| RYFYLLWLIVTWIYSRVVIH | inactive |
| KCIAGMSWCEH | 0.252 ± 0.2 |
| RRVDWDYLPLFMQAAPYSWK | -0.197 ± 0.22 |
| VLCGNSFMNCCSAFRCGSAV | 8.923 ± 0.059 |
| IRLFVRLNGHRWKRNW | -0.003 ± 0.33 |
| PEKTFICCLAVRDMQNRGVS | -0.032 ± 1.1 |
| SKGNVV | 0.709 ± 0.42 |
| NEWAN | -1.31 ± 0.62 |
| CVFLHSALSQYRVIIVTWYP | -0.237 ± 0.63 |
| FRIYA | 0.388 ± 0.29 |
| VWPGLIGHRSFFINLHVGKG | 7.38 ± 0.082 |
| HYKTMFRFVCHFCENGGDGL | 10.18 ± 0.06 |
| ILWCFRSVMA | -0.327 ± 0.28 |
| STSQWYRVLVRVVCSPM | 0.331 ± 0.4 |

| Substance | amyloid nucleation score |
| --- | --- |
| GRTYGFSSRVVMRRGSCDFG | 0.913 ± 0.52 |
| NTLSPFQIEFGGWLMGVLFK | 0.611 ± 0.81 |
| WKSCWLGIWSEGIYILGEET | -0.284 ± 1.1 |
| TRRWKALRP | 0.794 ± 0.2 |
| EWPMPWMFHRCSG | -0.138 ± 0.37 |
| GDTYMGVYANLVMLALYGPG | 5.2 ± 0.088 |
| RTVYFCQN | -1.5 ± 1.1 |
| YKVQTLDAPNYRFIGVFVRS | -0.711 ± 1.1 |
| TSDWRLYFRLTDVVIGLW | 1.86 ± 0.083 |
| PLHRWLQDR | -0.037 ± 0.79 |
| ESDMCFVWSIELVGLMFKLI | -0.979 ± 0.24 |
| GGLFRFYS | inactive |
| SIVYTLTCVL | 4.945 ± 0.038 |
| RRYKVDYTPSCIESPGVVLA | -1.19 ± 0.78 |
| FRMFNVGFPDRPIMFRVDRL | 0.41 ± 0.74 |
| STESARSKRGMSSPMNSIRA | 0.029 ± 0.32 |
| KEAPFCASGLPD | -0.324 ± 1.1 |
| WYMLLRESPGSCPVGDEQGR | 0.923 ± 0.81 |
| FFQLSYNIQASSNNLMASVS | inactive |
| PFPSPSDSGTVAA | 0.737 ± 0.54 |
| SKPCWLFRNK | -1.22 ± 1.1 |
| SGWTFGVQCLYTLVSMFLLC | 1.5 ± 0.12 |
| SVLMDYNSKWWDRMSSFIRP | -0.272 ± 0.48 |
| WGMWCMFHCRVAS | -0.196 ± 1 |
| NRSLGNHAEYNHASRLKGDS | -0.658 ± 0.31 |

| Substance | amyloid nucleation score |
| --- | --- |
| SVQKIEIMYYRRKTGVYEFE | 3.4 ± 0.055 |
| NLIESWTVYCIGLGG | inactive |
| QEVSIKSFLRKYLLCYTMML | -1.05 ± 0.44 |
| LGRQWFRIARGG | 0.654 ± 0.32 |
| SRWLSQSPDHSWGGQTYGMS | -0.023 ± 0.63 |
| CTLLFTLSYSVS | 4.245 ± 0.037 |
| LLHAVQDHVGLPTVYRRCSR | 2.79 ± 0.11 |
| YVLGVF | 0.045 ± 0.79 |
| HLGKASYREFSFFKGLGY | inactive |
| YVCGRENILFFERLKS | -0.327 ± 0.45 |
| HAFLG | 0.53 ± 0.5 |
| LKSSNRGNVRKRLLGEDEGT | 0.245 ± 0.37 |
| YITVSSESAWHYTDQATFDA | -0.129 ± 1.1 |
| QTLAYTSDKTS | 0.549 ± 0.45 |
| CLFRLSSCVPTWLMQLTMWG | 0.244 ± 0.25 |
| HKQRSSASKSV | -0.321 ± 0.39 |
| LACIPGGKVNSPLGWHGFRD | 0.057 ± 1.1 |
| TIDFWVRFYVRFYSRDGFYY | -2.33 ± 0.78 |
| YFYIF | 2.03 ± 0.12 |
| CTIVYF | 1.13 ± 0.27 |
| WYSSSIGHKMWVTYGSLWGQ | 0.505 ± 0.54 |
| IVKYTGSKIYKFWYDLAGPL | -1.06 ± 1.1 |
| TEQICGNMWSLYESFNFINS | -0.474 ± 1.1 |
| LGLLFAINTVLSSQLR | 7.703 ± 0.076 |
